Patent publication US20230131338A1 (Regeneron, published 2023)

Tests used:
[1] = molecular target: T1, cynomolgus monkey FXI (in pooled cynomolgus monkey plasma) (cynomolgus monkey, UniProt A0A2K5VVW4 19-624); assay: cell-based or functional assay
[2] = molecular target: T1, cynomolgus monkey FXI (in pooled …); assay: cell-based or functional assay; remark: listed apart in the source
[3] = molecular target: recombinant rabbit FXI with C-terminal myc-myc-hexahistidine tag (rbFXI.mmH) (rabbit, UniProt G1SSQ6 19-623); assay: SPR, REGN9933 surface-captured, mmH-tagged protein injected, 25°C, pH 7.4, 1:1 steady-state model
[4] = molecular target: recombinant mouse FXI with C-terminal myc-myc-hexahistidine tag (mFXI.mmH) (mouse, UniProt Q91Y47 19-624, limits assumed); assay: SPR, REGN9933 surface-captured, 25°C, pH 7.4

B1: REGN9933 (antibody, human IgG4 S228P, kappa, V domains shown)
VH: EVQLVESGGGLVQPGGSLRLSCAASGFTFSNYAMNWVRQAPGKGLDWVSFIRSGGDTTYYADSVKGRFTISRDNSKNTLYLQMNSLRAEDTAVYYCAKVHPYTWDYGDAFDIWGQGTMVTVSS
VL: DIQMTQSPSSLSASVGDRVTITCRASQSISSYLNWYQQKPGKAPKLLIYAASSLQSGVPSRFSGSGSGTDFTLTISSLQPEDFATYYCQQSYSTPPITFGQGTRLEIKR
notes: Fully human; hinge-stabilized IgG4 (IgG4P) Fc; also called H4H29790P2; subject anti-FXI mAb
Fold Increase in Clotting Time (aPTT w/EA), maximum change, monkey plasma [1]: 2.1 fold | TGA % ETP (induced w/EA), relative to baseline, monkey plasma [1]: 66% | TGA % Peak Thrombin (induced w/EA), relative to baseline, monkey plasma [1]: 43% | TGA Fold Increase in Lag Time (induced w/EA), maximum change, monkey plasma [1]: 2.2 fold | concentration at which aPTT doubles relative to baseline, pooled cynomolgus monkey plasma [2]: 1.1 µM | Kd [3]: 171 nM | binding result [4]: no binding (tested: 50 nM)
